Data: patent publication US20040072184A1

Tests used:
CapK peptide = molecular target: T1, CapK peptide; assay: cell-based or functional assay
T1 sequence (peptide): CGRTGRRNSI

PKB-sub peptide = molecular target: T2, PKB-sub peptide; assay: cell-based or functional assay
T2 sequence (peptide): CKRPRAASFAE

- kinase activity, CapK sub (CCPM1); GST-SGK2 from Hi5 cells treated with Calyculin A (CapK peptide): 59300 CCPM1
- kinase activity, CapK sub (CCPM1); GST-SGK2 from Hi5 cells treated with Microcysteine (CapK peptide): 330 CCPM1
- kinase activity, CapK sub (CCPM1); GST-SGK2 from Hi5 cells treated with Okadaic Acid (CapK peptide): 162000 CCPM1
- kinase activity, CapK sub (CCPM1); GST-SGK2 from untreated Hi5 cells (CapK peptide): 1080 CCPM1
- kinase activity, PKB sub (CCPM1); GST-SGK2 from Hi5 cells treated with Calyculin A (PKB-sub peptide): 92500 CCPM1
- kinase activity, PKB sub (CCPM1); GST-SGK2 from Hi5 cells treated with Microcysteine (PKB-sub peptide): 217 CCPM1
- kinase activity, PKB sub (CCPM1); GST-SGK2 from Hi5 cells treated with Okadaic Acid (PKB-sub peptide): 132000 CCPM1
- kinase activity, PKB sub (CCPM1); GST-SGK2 from untreated Hi5 cells (PKB-sub peptide): 979 CCPM1
B1: GST-SGK2 fusion protein (enzyme, not shown: a dimerising Fc or GST)
chain: MNSSPAGTPSPQPSRANGNINLGPSANPNAQPTDFDFLKVIGKGNYGKVLLAKRKSDGAFYAVKVLQKKSILKKKEQSHIMAERSVLLKNVRHPFLVGLRYSFQTPEKLYFVLDYVNGGELFFHLQRERRFLEPRARFYAAEVASAIGYLHSLNIIYRDLKPENILLDCQGHVVLTDFGLCKEGVEPEDTTSTFCGTPEYLAPEVLRKEPYDRAVDWWCLGAVLYEMLHGLPPFYSQDVSQMYENILHQPLQIPGGRTVAACDLLQSLLHKDQRQRLGSKADFLEIKNHVFFSPINWDDLYHKRLTPPFNPNVTGPADLKHFDPEFTQEAVSKSIGCTPDTVASSSGASSAFLGFSYAPEDDDILDC
